The labels stand for the following.
B1: C18orf25 (protein, UniProt Q96B23 1-404, looked up)
chain: MKMEEAVGKVEELIESEAPPKASEQETAKEEDGSVELESQVQKDGVADSTVISSMPCLLMELRRDSSESQLASTESDKPTTGRVYESDSSNHCMLSPSSSGHLADSDTLSSAEENEPSQAETAVEGDPSGVSGATVGRKSRRSRSESETSTMAAKKNRQSSDKQNGRVAKVKGHRSQKHKERIRLLRQKREAAARKKYNLLQDSSTSDSDLTCDSSTSSSDDDEEVSGSSKTITAEIPDGPPVVAHYDMSDTNSDPEVVNVDNLLAAAVVQEHSNSVGGQDTGATWRTSGLLEELNAEAGHLDPGFLASDKTSAGNAPLNEEINIASSDSEVEIVGVQEHARCVHPRGGVIQSVSSWKHGSGTQYVSTRQTQSWTAVTPQQTWASPAEVVDLTLDEDSRRKYLL
B2: RNF111 (enzyme, UniProt Q6ZNA4 1-994, looked up)
chain: MSQWTPEYNELYTLKVDMKSEIPSDAPKTQESLKGILLHPEPIGAAKSFPAGVEMINSKVGNEFSHLCDDSQKQEKEMNGNQQEQEKSLVVRKKRKSQQAGPSYVQNCVKENQGILGLRQHLGTPSDEDNDSSFSDCLSSPSSSLHFGDSDTVTSDEDKEVSVRHSQTILNAKSRSHSARSHKWPRTETESVSGLLMKRPCLHGSSLRRLPCRKRFVKNNSSQRTQKQKERILMQRKKREVLARRKYALLPSSSSSSENDLSSESSSSSSTEGEEDLFVSASENHQNNPAVPSGSIDEDVVVIEASSTPQVTANEEINVTSTDSEVEIVTVGESYRSRSTLGHSRSHWSQGSSSHASRPQEPRNRSRISTVIQPLRQNAAEVVDLTVDEDEPTVVPTTSARMESQATSASINNSNPSTSEQASDTASAVTSSQPSTVSETSATLTSNSTTGTSIGDDSRRTTSSAVTETGPPAMPRLPSCCPQHSPCGGSSQNHHALGHPHTSCFQQHGHHFQHHHHHHHTPHPAVPVSPSFSDPACPVERPPQVQAPCGANSSSGTSYHEQQALPVDLSNSGIRSHGSGSFHGASAFDPCCPVSSSRAAIFGHQAAAAAPSQPLSSIDGYGSSMVAQPQPQPPPQPSLSSCRHYMPPPYASLTRPLHHQASACPHSHGNPPPQTQPPPQVDYVIPHPVHAFHSQISSHATSHPVAPPPPTHLASTAAPIPQHLPPTHQPISHHIPATAPPAQRLHPHEVMQRMEVQRRRMMQHPTRAHERPPPHPHRMHPNYGHGHHIHVPQTMSSHPRQAPERSAWELGIEAGVTAATYTPGALHPHLAHYHAPPRLHHLQLGALPLMVPDMAGYPHIRYISSGLDGTSFRGPFRGNFEELIHLEERLGNVNRGASQGTIERCTYPHKYKKVTTDWFSQRKLHCKQDGEEGTEEDTEEKCTICLSILEEGEDVRRLPCMHLFHQVCVDQWLITNKKCPICRVDIEAQLPSES
B3: ZMYM5 (protein, UniProt Q9UJ78 1-669, looked up)
chain: MEKCSVGGLELTEQTPALLGNMAMATSLMDIGDSFGHPACPLVSRSRNSPVEDDDDDDDVVFIESIQPPSISAPAIADQRNFIFASSKNEKPQGNYSVIPPSSRDLASQKGNISETIVIDDEEDIETNGGAEKKSSCFIEWGLPGTKNKTNDLDFSTSSLSRSKTKTGVRPFNPGRMNVAGDLFQNGEFATHHSPDSWISQSASFPSNQKQPGVDSLSPVALLRKQNFQPTAQQQLTKPAKITCANCKKPLQKGQTAYQRKGSAHLFCSTTCLSSFSHKRTQNTRSIICKKDASTKKANVILPVESSKSFQEFYSTSCLSPCENNWNLKKGVFNKSRCTICSKLAEIRHEVSVNNVTHKLCSNHCFNKYRLANGLIMNCCEHCGEYMPSKSTGNNILVIGGQQKRFCCQSCINEYKQMMETKSKKLTASENRKRNAFREENEKQLYGSSNTLLKKIEGIPEKKEKTSQLQLSVECGTDTLLIQENVNLPPSSTSTIADTFQEQLEEKNFEDSIVPVVLSADPGTWPRILNIKQRDTLVENVPPQVRNFNFPKDNTGRKFSETYYTRILPNGEKTTRSWLLYSTSKDSVFCLYCKLFGEGKNQLKNENGCKDWQHLSHILSKHEESEMHVNNSVKYSKLKSDLKKNKAIDAAEHRLYENEKNDGVLLLYT
B4: ZBTB16 (protein, UniProt Q05516 1-673, looked up)
chain: MDLTKMGMIQLQNPSHPTGLLCKANQMRLAGTLCDVVIMVDSQEFHAHRTVLACTSKMFEILFHRNSQHYTLDFLSPKTFQQILEYAYTATLQAKAEDLDDLLYAAEILEIEYLEEQCLKMLETIQASDDNDTEATMADGGAEEEEDRKARYLKNIFISKHSSEESGYASVAGQSLPGPMVDQSPSVSTSFGLSAMSPTKAAVDSLMTIGQSLLQGTLQPPAGPEEPTLAGGGRHPGVAEVKTEMMQVDEVPSQDSPGAAESSISGGMGDKVEERGKEGPGTPTRSSVITSARELHYGREESAEQVPPPAEAGQAPTGRPEHPAPPPEKHLGIYSVLPNHKADAVLSMPSSVTSGLHVQPALAVSMDFSTYGGLLPQGFIQRELFSKLGELAVGMKSESRTIGEQCSVCGVELPDNEAVEQHRKLHSGMKTYGCELCGKRFLDSLRLRMHLLAHSAGAKAFVCDQCGAQFSKEDALETHRQTHTGTDMAVFCLLCGKRFQAQSALQQHMEVHAGVRSYICSECNRTFPSHTALKRHLRSHTGDHPYECEFCGSCFRDESTLKSHKRIHTGEKPYECNGCGKKFSLKHQLETHYRVHTGEKPFECKLCHQRSRDYSAMIKHLRTHNGASPYQCTICTEYCPSLSSMQKHMKGHKPEEIPPDWRIEKTYLYLCYV
B5: PIAS3 (enzyme, UniProt Q9Y6X2 1-628, looked up)
chain: MAELGELKHMVMSFRVSELQVLLGFAGRNKSGRKHELLAKALHLLKSSCAPSVQMKIKELYRRRFPRKTLGPSDLSLLSLPPGTSPVGSPGPLAPIPPTLLAPGTLLGPKREVDMHPPLPQPVHPDVTMKPLPFYEVYGELIRPTTLASTSSQRFEEAHFTFALTPQQVQQILTSREVLPGAKCDYTIQVQLRFCLCETSCPQEDYFPPNLFVKVNGKLCPLPGYLPPTKNGAEPKRPSRPINITPLARLSATVPNTIVVNWSSEFGRNYSLSVYLVRQLTAGTLLQKLRAKGIRNPDHSRALIKEKLTADPDSEVATTSLRVSLMCPLGKMRLTVPCRALTCAHLQSFDAALYLQMNEKKPTWTCPVCDKKAPYESLIIDGLFMEILSSCSDCDEIQFMEDGSWCPMKPKKEASEVCPPPGYGLDGLQYSPVQGGDPSENKKKVEVIDLTIESSSDEEDLPPTKKHCSVTSAAIPALPGSKGVLTSGHQPSSVLRSPAMGTLGGDFLSSLPLHEYPPAFPLGADIQGLDLFSFLQTESQHYGPSVITSLDEQDALGHFFQYRGTPSHFLGPLAPTLGSSHCSATPAPPPGRVSSIVAPGGALREGHGGPLPSGPSLTGCRSDIISLD
B6: ZNF198 (protein, UniProt Q9UBW7 1-1377, looked up)
chain: MDTSSVGGLELTDQTPVLLGSTAMATSLTNVGNSFSGPANPLVSRSNKFQNSSVEDDDDVVFIEPVQPPPPSVPVVADQRTITFTSSKNEELQGNDSKITPSSKELASQKGSVSETIVIDDEEDMETNQGQEKNSSNFIERRPPETKNRTNDVDFSTSSFSRSKVNAGMGNSGITTEPDSEIQIANVTTLETGVSSVNDGQLENTDGRDMNLMITHVTSLQNTNLGDVSNGLQSSNFGVNIQTYTPSLTSQTKTGVGPFNPGRMNVAGDVFQNGESATHHNPDSWISQSASFPRNQKQPGVDSLSPVASLPKQIFQPSVQQQPTKPVKVTCANCKKPLQKGQTAYQRKGSAHLFCSTTCLSSFSHKPAPKKLCVMCKKDITTMKGTIVAQVDSSESFQEFCSTSCLSLYEDKQNPTKGALNKSRCTICGKLTEIRHEVSFKNMTHKLCSDHCFNRYRMANGLIMNCCEQCGEYLPSKGAGNNVLVIDGQQKRFCCQSCVSEYKQVGSHPSFLKEVRDHMQDSFLMQPEKYGKLTTCTGCRTQCRFFDMTQCIGPNGYMEPYCSTACMNSHKTKYAKSQSLGIICHFCKRNSLPQYQATMPDGKLYNFCNSSCVAKFQALSMQSSPNGQFVAPSDIQLKCNYCKNSFCSKPEILEWENKVHQFCSKTCSDDYKKLHCIVTYCEYCQEEKTLHETVNFSGVKRPFCSEGCKLLYKQDFARRLGLRCVTCNYCSQLCKKGATKELDGVVRDFCSEDCCKKFQDWYYKAARCDCCKSQGTLKERVQWRGEMKHFCDQHCLLRFYCQQNEPNMTTQKGPENLHYDQGCQTSRTKMTGSAPPPSPTPNKEMKNKAVLCKPLTMTKATYCKPHMQTKSCQTDDTWRTEYVPVPIPVPVYIPVPMHMYSQNIPVPTTVPVPVPVPVFLPAPLDSSEKIPAAIEELKSKVSSDALDTELLTMTDMMSEDEGKTETTNINSVIIETDIIGSDLLKNSDPETQSSMPDVPYEPDLDIEIDFPRAAEELDMENEFLLPPVFGEEYEEQPRPRSKKKGAKRKAVSGYQSHDDSSDNSECSFPFKYTYGVNAWKHWVKTRQLDEDLLVLDELKSSKSVKLKEDLLSHTTAELNYGLAHFVNEIRRPNGENYAPDSIYYLCLGIQEYLCGSNRKDNIFIDPGYQTFEQELNKILRSWQPSILPDGSIFSRVEEDYLWRIKQLGSHSPVALLNTLFYFNTKYFGLKTVEQHLRLSFGTVFRHWKKNPLTMENKACLRYQVSSLCGTDNEDKITTGKRKHEDDEPVFEQIENTANPSRCPVKMFECYLSKSPQNLNQRMDVFYLQPECSSSTDSPVWYTSTSLDRNTLENMLVRVLLVKDIYDKDNYELDEDTD

The subject of the first data set is E4bp4 (NFIL3), wild type. The data set is described as follows: cell_activity. The following applies: 3T3 cells, 48 h; transcriptional repression.
Regarding “pGL3-E4bp4-CS reporter with three E4bp4 consensus binding sites”, the activity (% decrease in luciferase) worked out at 50.

Another data set addresses E4bp4. The data set is described as follows: yeast-two-hybrid screen, E4bp4 as bait.
Details: not given
The molecule “U5-200KD (from UniProt O75643 1-2136) (enzyme)” registered a Positive clones of 1 clones.

Molecule PIAS1 (from UniProt O75925 2-651) displayed a Positive clones of 20 clones. Same read-out and setting: under “HIPK1 (from UniProt Q86Z02 1-1210) (enzyme)” stands 1 clones; under “RANBP2 (from UniProt P49792 1-3224) (enzyme)”, 1 clones; under FLNA (from UniProt P21333 2-2647), 1 clones. On the same count and under the same terms, under FLJ544447 stands 1 clones; under CHD1 (from UniProt O14646 1-1710), 1 clones; under “SETX (from UniProt Q7Z333 1-2677) (enzyme)”, 2 clones. ZNF237 displayed a Positive clones of 5 clones. Still for that read-out and setting: under “SORL1 (from UniProt Q92673 82-2214) (receptor)” stands 1 clones; under “HIPK3 (from UniProt Q9H422 1-1215) (enzyme)”, 5 clones; under “TLK2 (from UniProt Q86UE8 1-772) (enzyme)”, 2 clones.

DSP (from UniProt P15924 1-2871) registered a Positive clones of 2 clones.

In the case of SNRP70 (from UniProt P08621 2-437), the Positive clones came out at 2 clones. The same measure, in the same setting: under FLJ13057 stands 5 clones; under B1, 1 clones; under B2, 1 clones.

Consider B3, for which the Positive clones worked out at 5 clones. Consider B4, for which the Positive clones was determined as 1 clones. The same measure, in the same setting: under B5 stands 2 clones. The same measure, in the same setting: as for B6, the figure is 5 clones.

(Values after patent publication US20230002732A1.)
